# Data reported in PMC5987717.
# Legend:
# Assay in all cases: FRET or BRET
# [1] = target: hRIIα-RLuc8 (PKA regulatory subunit RIIα conjugated to mutant Renilla luciferase) (human) (UniProt P13861)
# [2] = target: hRIIβ-RLuc8 (PKA regulatory subunit RIIβ conjugated to mutant Renilla luciferase) (human) (UniProt P31323)
# [3] = target: hRIβ-Rluc8 (PKA regulatory subunit RIβ conjugated to mutant Renilla luciferase) (human) (UniProt P31321)
# hRIβ-Rluc8 (PKA regulatory subunit RIβ conjugated to mutant Renilla luciferase) (human), sequence (P31321 whole entry, change not shown): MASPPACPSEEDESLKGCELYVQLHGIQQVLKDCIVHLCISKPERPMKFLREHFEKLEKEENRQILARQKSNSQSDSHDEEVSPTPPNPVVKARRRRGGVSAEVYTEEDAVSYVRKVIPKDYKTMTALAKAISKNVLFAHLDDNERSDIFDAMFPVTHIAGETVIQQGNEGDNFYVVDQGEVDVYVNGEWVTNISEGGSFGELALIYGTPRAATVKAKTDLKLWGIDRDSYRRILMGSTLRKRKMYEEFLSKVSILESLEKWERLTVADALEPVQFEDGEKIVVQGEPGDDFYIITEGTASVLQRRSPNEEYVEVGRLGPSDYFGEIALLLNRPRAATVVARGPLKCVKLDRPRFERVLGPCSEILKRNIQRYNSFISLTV
# hRIIα-RLuc8 (PKA regulatory subunit RIIα conjugated to mutant Renilla luciferase) (human), sequence (P13861 whole entry, change not shown): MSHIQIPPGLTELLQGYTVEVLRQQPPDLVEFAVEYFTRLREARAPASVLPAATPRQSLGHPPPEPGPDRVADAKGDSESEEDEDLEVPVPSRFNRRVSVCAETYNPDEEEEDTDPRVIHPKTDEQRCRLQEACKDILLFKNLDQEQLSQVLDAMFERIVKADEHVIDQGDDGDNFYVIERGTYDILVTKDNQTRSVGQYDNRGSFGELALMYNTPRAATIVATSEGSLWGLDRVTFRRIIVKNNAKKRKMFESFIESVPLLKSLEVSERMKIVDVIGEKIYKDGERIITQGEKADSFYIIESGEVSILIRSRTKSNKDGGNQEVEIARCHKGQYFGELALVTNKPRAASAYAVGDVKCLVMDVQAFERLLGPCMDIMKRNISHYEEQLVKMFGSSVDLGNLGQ
# hRIIβ-RLuc8 (PKA regulatory subunit RIIβ conjugated to mutant Renilla luciferase) (human), sequence (P31323 whole entry, change not shown): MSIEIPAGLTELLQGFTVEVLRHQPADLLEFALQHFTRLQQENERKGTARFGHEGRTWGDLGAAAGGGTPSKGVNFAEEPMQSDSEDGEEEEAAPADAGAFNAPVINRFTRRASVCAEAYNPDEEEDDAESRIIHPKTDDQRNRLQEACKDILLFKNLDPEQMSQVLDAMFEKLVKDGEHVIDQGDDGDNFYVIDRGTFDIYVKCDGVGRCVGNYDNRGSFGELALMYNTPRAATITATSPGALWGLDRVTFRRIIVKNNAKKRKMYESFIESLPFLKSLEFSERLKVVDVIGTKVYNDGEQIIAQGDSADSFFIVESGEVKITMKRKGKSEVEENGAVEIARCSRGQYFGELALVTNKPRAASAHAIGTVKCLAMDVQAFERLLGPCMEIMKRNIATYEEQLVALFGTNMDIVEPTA
substance,measurement,setting,value
GFP-hCα (GFP-tagged PKA catalytic subunit Cα) (from UniProt P17612 1-351) (natural protein),BRET signal left after Fsk/IBMX (percent of the unstimulated sensor),[1],25%
same,BRET signal left after Fsk/IBMX (percent of the unstimulated sensor),[2],28%
same,BRET signal left after Fsk/IBMX (percent of the unstimulated sensor),[3],75%
